“Also recorded” adds a separate entry of the source.
Key:
[1] = system: Candida SC5314 cells; experiment: Competition of anti-Als5 antibody binding to Candida cell surface, flow cytometry; assay type: cell-based, Candida albicans; settings: TRITC secondary antibody, 37 °C 1 hour, mean of 3 independent experiments in duplicates
Experimental: The production of the antibodies was outsourced (Merck India Ltd.). Polyclonal antibodies were generated in rabbit against the protein band obtained after an SDS-PAGE run of GST- Als5-SS. The antibodies detected both GST-Als5 as well as GST-Als5-SS on a Western Blot. The specificity of the generated anti-Als5 antibody was checked by detecting its ability to bind to the Candida cell surface adhesins. For staining, Candida SC5314 cells (a kind gift from Prof. Rajendra Prasad, SLS, JNU) were grown in synthetic dextrose minimal medium at 30°C to an OD600nm of 0.5. 500 µl of the cells were taken in an eppendorf and washed with PBS. […] The cells were then washed thrice with PBS, and the presence of the TRITC labelled secondary Ab on the Candida cells was detected using flow cytometry. To rule out the non-specific interaction of the secondary Ab with the proteins on Candida cell surface, unstained cells were also detected by flow cytometer. […]
In order to confirm the identity of the Als5 protein, we also designed the following experiment. […] Using a TRITC labelled secondary antibody, we detected the bound primary antibodies on the Candida cells by flow cytometry. […]
Figure 2 GST-Als5 specifically blocks binding of anti-Als5 antibody on Candida cell surface. […] This primary antibody was detected by a secondary antibody that was conjugated with TRITC and detected using flow cytometry as described in the text. […]

[2] = Aggregation by transmission electron microscopy; assay type: physicochemical; settings: 37 °C
Experimental: Transmission Electron Microscopy (TEM)
TEM studies were carried out on a JEOL 2100F. The proteins (0.09 mg/ml) were incubated at 37 °C for 2 weeks prior to the measurements. The proteins were spotted on a carbon-coated copper grid and positively stained with 2% uranyl acetate. The sample was then dried and examined by TEM using a 210 kV accelerating voltage.
Figure 5 Transmission electron microscope images showing aggregation by GST-Als5. […] The scale bar in each panel represents 100 nm. Left panel: 10,000X magnification. Right panel: 25,000X magnification.
(A) Prediction of β-aggregation potential for the GPI anchor attachment signal sequence (SS). The prediction of β-aggregation potential for the SS was done using TANGO (residues 1328–1347). Also shown is the propensity for α-helix, β-turn and β-sheet formation in the unfolded polypeptide chain as predicted by TANGO. […] (B). Transmission electron microscope images showing aggregation by SS and SS in the presence of GST-Als5. The samples, SS (40.0 µM), GST-Als5 (0.4 µM) and GST-Als5 (0.4 µM) + SS (40.0 µM) were incubated as 37 °C for two days before TEM images were recorded.

[3] = Aggregation/precipitation on concentrating the protein; assay type: physicochemical; settings: attempts to concentrate protein above ∼0.09 mg/ml
From the text: However, we observed bands of Mr ∼270 kDa, for both GST-Als5 and GST-Als5-SS (Figure 1B). This marked difference between the observed molecular weights in SDS-PAGE and the expected molecular weights has been previously attributed to the high content of hydroxyl amino acids in proteins; both Als5 and Als5-SS are rich in serine and threonine residues.
It must be pointed out that a PreScission^TM protease site exists between the fusion tag and the Als5 proteins in the two constructs. However, our attempts to cleave off the fusion tag with the protease met with poor success. The PreScission^TM protease is also available as a GST-tagged enzyme and it is possible that steric factors precluded the interaction of the protease with the cleavage site in our fusion protein. Additionally, our protein yields to begin with were very low (∼0.09 mg/ml) and this too could have affected the efficiency of the cleavage. […] We used similarly expressed and purified GST as the control for all our experiments. Similar studies with GST-tagged proteins, including conformational studies, have been reported by other groups previously (cf.).

B1: GST-Als5: GST fusion of full length Als5 minus the GPI anchor attachment signal sequence, expressed in E. coli (protein)
chain: ITGIFNSIDSLTWSNAGNYAFKGPGYPTWNAVLGWSLDGTSANPGDTFILNMPCVFKFTASQKSVDLTADGVKYATCQFYSGEEFTTFSSLKCTVNNNLRSSIKALGTVTLPIAFNVGGTGSSVDLEDSKCFTAGTNTVTFNDGSKKLSIAVNFEKSTVDQSGYLTTSRFMPSLNKIATLYVAPQCENGYTSGTMGFSTSYGDVAIDCSNVHIGISKGVNDWNHPVTSESFSYTKSCSSFGISITYQNVPAGYRPFIDAYISPSDNNQYQLSYKNDYTCVDDYWQHAPFTLKWTGYKNSDAGSNGIVIVATTRTVTDSTTAVTTLPFNPSVDKTKTIEILQPIPTTTITTSYVGVTTSYSTKTAPIGETATVIVDVPYHTTTTVTSEWTGTITTTTTRTNPTDSIDTVVVQVPLPNPTTTTTQFWSESFTSTTTITNSLKGTDSVIVREPHNPTVTTTEFWSESYATTETITNGPEGTDSVIVREPHNPTVTTTEFWSESYATTETVTNKPEGTDSVIIKEPHNPTVTTTEFWSESYATTETITTGPLGTDSIVIHDPLEESSSTTAIESSDSNISSSAQESSSSVEQSSSIVGLSSSSDIPLSSDMPSSSSTGLTSSESSTVSSYDSDSSSSSELSTFSSSESYSSSISDTTNFWDSSSSDLESTSITWSSSIDAQSSQSVQSVSNSISTSQETTSSSGEESNTSVTDILVSSDASSILNSDISSYYPSSTISLSDDFPHTIAGEPDSRSSSSIASTVEISSDLVSLTSDPTSSFDSSSSLNSDSSSSPFSDESDISASSSFSTLVAPSFSLSSSSSLSLTYPHYVNSTTYHASESESSSVASPSMASESANDDTHTLSESTDTTSSIGTDSSTVTFCRRDNGDGCIVTGMPSSSIDSEQTSDVTTTSSFVASSTPTSAEQSITDNPNIDSSQTSASSSTKSSVSVSDTVVNSISLSETSTLSSDDSTSSDTSISSTTNSDTGNINAGSSHTSTASIKESSIQKTGVMLSSSYLSTKLSSTSDITTELITTELITTELTTIEDNEPNTFTSTPSSHSEIFSSDNSVLSKQVDRESTIKTSPTTDVTTVSSLSVHSTEASTATLGENSFSNVASTPSNIATSLRSTSSSSNHATESSGTVKSEASAEAIPSPPTSTDNRLSYSTEEAKGITYANSGSTNNLITESQVAAPTDSTSVLIENPVVTSTFDDNSSAAVDQPSKTKSIEESIMNPDSTNETNNGFIATLSQAQVPNSLIHSESISTTMAKTTDASINGDSAASNSQPTTLIQQVATSSYNQPLITTYAGSSS
modifications: left off: GST, N-terminal, kept
inhibition of anti-Als5 antibody binding to Candida cells (in words) [1]: could inhibit the interaction of the primary antibodies to the cell surface in a concentration dependent manner; also recorded: inhibited the binding of anti-Als5 antibody to C.albicans cell surface in a concentration dependent manner | aggregation (in words) ([2]; 2 weeks, 0.4 µM / 0.09 mg/ml (method)): significantly higher amount of aggregation as compared to either GST-Als5-SS or GST alone; also recorded: showed significant amount of aggregation | aggregation (in words) ([2]; 2 days, SS 40.0 µM, GST-Als5 0.4 µM, alone or together): aggregates both in the absence as well as in the presence of SS | aggregation and precipitation on concentrating (in words) [3]: aggregating and precipitating out; also recorded: tended to aggregate and precipitate out of solution
